First the molecules themselves.
B1: (cyclo 29-32) [Ac-Pro3,D-Pro4,D-Phe11, Glu29, Lys32]-hUcn(3-40) (peptide)
peptide: Ac-P[dP]LSIDLT[dF]HLLRTLLELARTQSQREEAEKNRIIFDSV-NH2
modifications: lactam 27-30
SMILES: CC[C@H](C)[C@H](NC(=O)[C@H](CO)NC(=O)[C@H](CC(C)C)NC(=O)[C@H]1CCCN1C(=O)[C@@H]1CCCN1C(C)=O)C(=O)N[C@@H](CC(=O)O)C(=O)N[C@@H](CC(C)C)C(=O)N[C@H](C(=O)N[C@H](Cc1ccccc1)C(=O)N[C@@H](Cc1c[nH]cn1)C(=O)N[C@@H](CC(C)C)C(=O)N[C@@H](CC(C)C)C(=O)N[C@@H](CCCNC(=N)N)C(=O)N[C@H](C(=O)N[C@@H](CC(C)C)C(=O)N[C@@H](CC(C)C)C(=O)N[C@@H](CCC(=O)O)C(=O)N[C@@H](CC(C)C)C(=O)N[C@@H](C)C(=O)N[C@@H](CCCNC(=N)N)C(=O)N[C@H](C(=O)N[C@@H](CCC(N)=O)C(=O)N[C@@H](CO)C(=O)N[C@@H](CCC(N)=O)C(=O)N[C@@H](CCCNC(=N)N)C(=O)N[C@@H](CCC(=O)O)C(=O)N[C@H]1CCC(=O)NCCCC[C@@H](C(=O)N[C@@H](CC(N)=O)C(=O)N[C@@H](CCCNC(=N)N)C(=O)N[C@H](C(=O)N[C@H](C(=O)N[C@@H](Cc2ccccc2)C(=O)N[C@@H](CC(=O)O)C(=O)N[C@@H](CO)C(=O)N[C@H](C(N)=O)C(C)C)[C@@H](C)CC)[C@@H](C)CC)NC(=O)[C@H](CCC(=O)O)NC(=O)[C@H](C)NC1=O)[C@@H](C)O)[C@@H](C)O)[C@@H](C)O
B2: (cyclo 29-32) [Ac-Pro3,D-Ser4,D-Phe11, Glu29, Lys32]-hUcn(3-40) (peptide)
peptide: Ac-P[dS]LSIDLT[dF]HLLRTLLELARTQSQREEAEKNRIIFDSV-NH2
modifications: lactam 27-30
SMILES: CC[C@H](C)[C@H](NC(=O)[C@H](CO)NC(=O)[C@H](CC(C)C)NC(=O)[C@@H](CO)NC(=O)[C@@H]1CCCN1C(C)=O)C(=O)N[C@@H](CC(=O)O)C(=O)N[C@@H](CC(C)C)C(=O)N[C@H](C(=O)N[C@H](Cc1ccccc1)C(=O)N[C@@H](Cc1c[nH]cn1)C(=O)N[C@@H](CC(C)C)C(=O)N[C@@H](CC(C)C)C(=O)N[C@@H](CCCNC(=N)N)C(=O)N[C@H](C(=O)N[C@@H](CC(C)C)C(=O)N[C@@H](CC(C)C)C(=O)N[C@@H](CCC(=O)O)C(=O)N[C@@H](CC(C)C)C(=O)N[C@@H](C)C(=O)N[C@@H](CCCNC(=N)N)C(=O)N[C@H](C(=O)N[C@@H](CCC(N)=O)C(=O)N[C@@H](CO)C(=O)N[C@@H](CCC(N)=O)C(=O)N[C@@H](CCCNC(=N)N)C(=O)N[C@@H](CCC(=O)O)C(=O)N[C@H]1CCC(=O)NCCCC[C@@H](C(=O)N[C@@H](CC(N)=O)C(=O)N[C@@H](CCCNC(=N)N)C(=O)N[C@H](C(=O)N[C@H](C(=O)N[C@@H](Cc2ccccc2)C(=O)N[C@@H](CC(=O)O)C(=O)N[C@@H](CO)C(=O)N[C@H](C(N)=O)C(C)C)[C@@H](C)CC)[C@@H](C)CC)NC(=O)[C@H](CCC(=O)O)NC(=O)[C@H](C)NC1=O)[C@@H](C)O)[C@@H](C)O)[C@@H](C)O
B3: (cyclo 29-32) [Ac-Pro3,D-Phe11, Glu29, D-Glu31, Lys32]-hUcn(3-40) (peptide)
peptide: Ac-PSLSIDLT[dF]HLLRTLLELARTQSQREEA[dE]KNRIIFDSV-NH2
modifications: lactam 27-30
SMILES: CC[C@H](C)[C@H](NC(=O)[C@H](CO)NC(=O)[C@H](CC(C)C)NC(=O)[C@H](CO)NC(=O)[C@@H]1CCCN1C(C)=O)C(=O)N[C@@H](CC(=O)O)C(=O)N[C@@H](CC(C)C)C(=O)N[C@H](C(=O)N[C@H](Cc1ccccc1)C(=O)N[C@@H](Cc1c[nH]cn1)C(=O)N[C@@H](CC(C)C)C(=O)N[C@@H](CC(C)C)C(=O)N[C@@H](CCCNC(=N)N)C(=O)N[C@H](C(=O)N[C@@H](CC(C)C)C(=O)N[C@@H](CC(C)C)C(=O)N[C@@H](CCC(=O)O)C(=O)N[C@@H](CC(C)C)C(=O)N[C@@H](C)C(=O)N[C@@H](CCCNC(=N)N)C(=O)N[C@H](C(=O)N[C@@H](CCC(N)=O)C(=O)N[C@@H](CO)C(=O)N[C@@H](CCC(N)=O)C(=O)N[C@@H](CCCNC(=N)N)C(=O)N[C@@H](CCC(=O)O)C(=O)N[C@H]1CCC(=O)NCCCC[C@@H](C(=O)N[C@@H](CC(N)=O)C(=O)N[C@@H](CCCNC(=N)N)C(=O)N[C@H](C(=O)N[C@H](C(=O)N[C@@H](Cc2ccccc2)C(=O)N[C@@H](CC(=O)O)C(=O)N[C@@H](CO)C(=O)N[C@H](C(N)=O)C(C)C)[C@@H](C)CC)[C@@H](C)CC)NC(=O)[C@@H](CCC(=O)O)NC(=O)[C@H](C)NC1=O)[C@@H](C)O)[C@@H](C)O)[C@@H](C)O
B4: (cyclo 29-32) [D-Phe11, Glu29, D-Glu31, Lys32]-Ucn(11-40) (peptide)
peptide: [dF]HLLRTLLELARTQSQREEA[dE]KNRIIFDSV-NH2
modifications: lactam 19-22; N-terminus assumed
SMILES: CC[C@H](C)[C@H](NC(=O)[C@H](CCCNC(=N)N)NC(=O)[C@H](CC(N)=O)NC(=O)[C@@H]1CCCCNC(=O)CC[C@H](NC(=O)[C@H](CCC(=O)O)NC(=O)[C@H](CCCNC(=N)N)NC(=O)[C@H](CCC(N)=O)NC(=O)[C@H](CO)NC(=O)[C@H](CCC(N)=O)NC(=O)[C@@H](NC(=O)[C@H](CCCNC(=N)N)NC(=O)[C@H](C)NC(=O)[C@H](CC(C)C)NC(=O)[C@H](CCC(=O)O)NC(=O)[C@H](CC(C)C)NC(=O)[C@H](CC(C)C)NC(=O)[C@@H](NC(=O)[C@H](CCCNC(=N)N)NC(=O)[C@H](CC(C)C)NC(=O)[C@H](CC(C)C)NC(=O)[C@H](Cc2c[nH]cn2)NC(=O)[C@H](N)Cc2ccccc2)[C@@H](C)O)[C@@H](C)O)C(=O)N[C@@H](C)C(=O)N[C@H](CCC(=O)O)C(=O)N1)C(=O)N[C@H](C(=O)N[C@@H](Cc1ccccc1)C(=O)N[C@@H](CC(=O)O)C(=O)N[C@@H](CO)C(=O)N[C@H](C(N)=O)C(C)C)[C@@H](C)CC
B5: (cyclo 29-32)[D-Phe11, Glu29, Lys32]-Ucn(11-40) (peptide)
peptide: [dF]HLLRTLLELARTQSQREEAEKNRIIFDSV-NH2
modifications: lactam 19-22; N-terminus assumed
SMILES: CC[C@H](C)[C@H](NC(=O)[C@H](CCCNC(=N)N)NC(=O)[C@H](CC(N)=O)NC(=O)[C@@H]1CCCCNC(=O)CC[C@H](NC(=O)[C@H](CCC(=O)O)NC(=O)[C@H](CCCNC(=N)N)NC(=O)[C@H](CCC(N)=O)NC(=O)[C@H](CO)NC(=O)[C@H](CCC(N)=O)NC(=O)[C@@H](NC(=O)[C@H](CCCNC(=N)N)NC(=O)[C@H](C)NC(=O)[C@H](CC(C)C)NC(=O)[C@H](CCC(=O)O)NC(=O)[C@H](CC(C)C)NC(=O)[C@H](CC(C)C)NC(=O)[C@@H](NC(=O)[C@H](CCCNC(=N)N)NC(=O)[C@H](CC(C)C)NC(=O)[C@H](CC(C)C)NC(=O)[C@H](Cc2c[nH]cn2)NC(=O)[C@H](N)Cc2ccccc2)[C@@H](C)O)[C@@H](C)O)C(=O)N[C@@H](C)C(=O)N[C@@H](CCC(=O)O)C(=O)N1)C(=O)N[C@H](C(=O)N[C@@H](Cc1ccccc1)C(=O)N[C@@H](CC(=O)O)C(=O)N[C@@H](CO)C(=O)N[C@H](C(N)=O)C(C)C)[C@@H](C)CC
B6: (cyclo 29-32) [D-Tyr11, Glu29, Lys32]-Ucn(11-40) (peptide)
peptide: [dY]HLLRTLLELARTQSQREEAEKNRIIFDSV-NH2
modifications: lactam 19-22; N-terminus assumed
SMILES: CC[C@H](C)[C@H](NC(=O)[C@H](CCCNC(=N)N)NC(=O)[C@H](CC(N)=O)NC(=O)[C@@H]1CCCCNC(=O)CC[C@H](NC(=O)[C@H](CCC(=O)O)NC(=O)[C@H](CCCNC(=N)N)NC(=O)[C@H](CCC(N)=O)NC(=O)[C@H](CO)NC(=O)[C@H](CCC(N)=O)NC(=O)[C@@H](NC(=O)[C@H](CCCNC(=N)N)NC(=O)[C@H](C)NC(=O)[C@H](CC(C)C)NC(=O)[C@H](CCC(=O)O)NC(=O)[C@H](CC(C)C)NC(=O)[C@H](CC(C)C)NC(=O)[C@@H](NC(=O)[C@H](CCCNC(=N)N)NC(=O)[C@H](CC(C)C)NC(=O)[C@H](CC(C)C)NC(=O)[C@H](Cc2c[nH]cn2)NC(=O)[C@H](N)Cc2ccc(O)cc2)[C@@H](C)O)[C@@H](C)O)C(=O)N[C@@H](C)C(=O)N[C@@H](CCC(=O)O)C(=O)N1)C(=O)N[C@H](C(=O)N[C@@H](Cc1ccccc1)C(=O)N[C@@H](CC(=O)O)C(=O)N[C@@H](CO)C(=O)N[C@H](C(N)=O)C(C)C)[C@@H](C)CC

Bridges are numbered along the chain shown (N, C = ends). Where no end group is shown, it is not given here. [ ]: non-standard residue; d: D form. Orn = NCCC[C@H](N)C(=O)O

One assay deals with mammalian mean arterial blood pressure. The assay is described as follows: in vivo test measuring elevation of mean arterial blood pressure as a result of iv injection. Particulars: result in words; indicative of a Ucn antagonist. The source says:
The peptide, Ucn(11-40), having the amino acid sequence (see SEQ ID NO: 8): […] is synthesized in the manner described in Example I. To evaluate the biological activity of a candidate peptide as a Ucn antagonist (which will be indicative of its effective binding to CRF receptors), the previously mentioned assay from Endocrinology, 91, supra, is run in the presence of a challenge dose of ovine CRF. […] An in vivo test measuring elevation of mean arterial blood pressure as a result of iv injection is also simply and straightforwardly performed.
Turning to “H-Phe-His-Leu-Leu-Arg-Thr-Leu-Leu-Glu-Leu-Ala-Arg-Thr-Gln-Ser-Gln-Arg-Glu-Arg-Ala-Glu-Gln-Asn-Arg-Ile-Ile-Phe-Asp-Ser-Val-NH2 (H-FHLLRTLLELARTQSQRERAEQNRIIFDSV-NH2) [Ucn(11-40)]”, the “vasoconstrictive activity causing elevation of mean arterial blood pressure” value was “significant mammalian vasoconstrictive activity”. In the case of “H-[dF]HLLRTLLELARTQSQREEA[dR][Orn]NRIIFDSV-NH2”, the “vasoconstrictive activity causing elevation of mean arterial blood pressure” value is reported as “significant mammalian vasoconstrictive activity”. The same measure, in the same setting: then H-[dF]HLLRTLLELARTQSQREKAEENRIIFDSV-NH2, with “significant mammalian vasoconstrictive activity”. On the same count and under the same terms, then “H-[dF]HLLRTLLELARTQSQREKA[dE]ENRIIFDSV-NH2”, with “significant mammalian vasoconstrictive activity”; and “H-[dY]HLLRTLLELARTQSQREEA[dE]KNRIIFDSV-NH2”, with “significant mammalian vasoconstrictive activity”. “H-[dY]HLLRTLLELARTQSQRERAEQNRIIFDSV-NH2 [[D-Tyr^11]-Ucn(11-40)]”: the “vasoconstrictive activity causing elevation of mean arterial blood pressure” value is reported as “significant mammalian vasoconstrictive activity”.

A further assay addresses CRF receptors on anterior pituitary cells in culture. The assay can be described thus: cell-based or functional assay.
Conditions: not given
On to [dY]DNPSLSIDLTFHLLRTLLELARTQSQRERAEQNRIIFDSV-NH2 [[D-Tyr0]hUcn(1-40)], for which the ACTH secretion, anterior pituitary cell cultures, potency relative to r/hCRF came to 1.23 times r/hCRF. Consider B1, for which the ACTH secretion, anterior pituitary cell cultures, potency relative to r/hCRF came out at 9.9 times r/hCRF.

On to B2, for which the ACTH secretion, anterior pituitary cell cultures, potency relative to r/hCRF worked out at 5.69 times r/hCRF.

In the case of B3, the ACTH secretion, anterior pituitary cell cultures, potency relative to r/hCRF amounted to 6.14 times r/hCRF. In turn, B4 had an antagonism of ACTH secretion under a challenge dose of ovine CRF, potency relative to the Standard Antagonist (times Standard Antagonist) of 4.72. Molecule B5 came in with an antagonism of ACTH secretion under a challenge dose of ovine CRF, potency relative to the Standard Antagonist (times Standard Antagonist) of 10.3. The same measure, in the same setting: in the case of B6 it was 4.01.

For the origin of these results see patent US20030032587A1, “Urocortin peptides” (The Salk Institute for Biological Studies, priority 1995, published 2003).
